What all share (experiment): cell_activity
Data set [1] has as its target ZFN 65459 (left) F1 Qm14 Qm5, F3 Qm5, F5 Qm5 (R to Q) (synthetic) (UniProt P14870). The note with it: with 65526, L:R 60:15 ug RNA, CD34+ cells.
Data set [2] addresses ZFN 65526 (right) F1 Qm5, F2 Qm5, F4 Qm5, F5 Qm5 (R to Q); FokI R416S (synthetic) (UniProt P14870). Conditions: with 63014, L:R 60:15 ug RNA, CD34+ cells.
Data set [3] addresses ZFN 65549 (right) F1 Qm5, F2 Qm5, F3 Qm5, F4 Qm5 (R to Q); FokI K525S (synthetic) (UniProt P14870). The note with it: with 63014, 60:60 ug RNA, CD34+ cells; Table 3 gives 79.82.
For data set [4], the target named is ZFN 65550 (right) F1 Qm5, F2 Qm5, F4 Qm5, F5 Qm5 (R to Q); FokI K525S (synthetic) (UniProt P14870). Conditions: with 63014, 60:60 ug RNA, CD34+ cells; Table 3 gives 79.96.

Sequence “AAAGCAACTGTTAGCTTGCACTAGACTA (double strand) [BCL11A +58 left half-site]” came in with an activity in data set [1] of 76.9 % indels.
For the sequence “CACAGGCTCCAGGAAGGGTTTGGCCTCT (double strand) [BCL11A +58 right half-site]”, the activity in data set [2] was found to be 81.2 % indels; in data set [3], 80 % indels; in data set [4], 79.8 % indels.
